We go through 9 molecules from patent US20030175703, “RNA aptamers and methods for identifying the same” (published 2003).

Series [1] has as its target T1, thrombin (F2) (human, UniProt P00734;P00734 P00734:328-363,P00734:364-622). As to the kind of experiment: filter; ±0.7.
Series [2] has as its target T2, angiopoietin-2 (Ang2) (UniProt O15123 O15123:19-496). As to the kind of experiment: FIG. 27 gives <10 nM; about 1 nM in competition (FIG. 29).
The target in series [3] is T2, angiopoietin-2 (Ang2).
In series [4] the target is T1, thrombin (F2).
The target of series [5] is T3, coagulation factor IX (FIX) (UniProt P00740 P00740:47-461). As to the kind of experiment: ±0.7.
Series [6] addresses T4, coagulation factor IXa (FIXa) (UniProt P00740;P00740 P00740:47-191,P00740:227-461). As to the kind of experiment: filter; ±0.2; 500-700 pM in Table 1.
Series [7] has as its target T4, coagulation factor IXa (FIXa). As to the kind of experiment: ±0.05; p287 gives about 1 to 3 nM. The settings on record: stem-loop.
The target in series [8] is T3, coagulation factor IX (FIX). As to the kind of experiment: ±0.8; p287 gives about 6 to 10 nM. The note with it: stem-loop.
Series [9] deals with T4, coagulation factor IXa (FIXa). As to the kind of experiment: competition; cholesterol has modest effect on affinity.
The target of series [10] is coagulation factor VIIa (FVIIa) (UniProt P08709;P08709 P08709:61-212,P08709:213-466). As to the kind of experiment: competition; physiologic conditions.

Where two headings read alike, the source gives them in different places.

B1: TOG 25 (TOGGLE-25) (ssRNA)
RNA: GGGAGAGAGGAAGAGGGAUGGGGAACAAAGCUGAAGUACUUACCCAAGAUCAUCCCGAACGACAUAACCCAGAGGUCGAUAGUACUGGAUCCCCCC
In turn, B1 had a Kd in the series with thrombin (F2) [1] of 2.8 nM.

B2: ANG11-1 (ssRNA)
RNA: GGGAGGACGAUGCGGACUAGCCUCAUCAGCUCAUGUGCCCCUCCGCCUGGAUCACCAGACGACUCGCUGAGGAUCCGAGA
modifications: 2'-F
Turning to B2, the Kd with angiopoietin-2 (Ang2) [2] was approximately 5 nM.

B3: Ang2 aptamer 9-5 (ssRNA)
RNA: GGGAGGACGAUGCGGCGAUCUUUUCGUCAACCGCACGUUGAACUCGGCUCGGCACCAGACGACUCGCUGAGGAUCCGAGA
modifications: 2'-F
Regarding B3, in the series with angiopoietin-2 (Ang2) [3], the Kd is approximately 5 nM.

B4: TOG 25 short loop U2 (ssRNA)
RNA: GGGAACAAAGCUGAAGAACUUACCC
For B4, the Kd with thrombin (F2) [4] is approximately 1 nM.

B5: RNA 9.3 (ssRNA)
RNA: GGGAGAGAGGAAGAGGGAUGGGGACUAUACCGCGUAAUGCUGCCUCCCCAUUCCGGAACGCUCAUAACCCAGAGGUCGAUAGUACUGGAUCCCCCC
modifications: 2'-F pyrimidines
Turning to B5, the Kd in [5] came to 3.96 nM; in series [6] it was 0.65 nM.

B6: Ang2 aptamer 11-3 (ssRNA)
RNA: GGGAGGACGAUGCGGUUAACCAUCAGCUCAUGGCCCCUGCCCUCUCAAGGACCACCAGACGACUCGCUGAGGAUCCGAGA
modifications: 2'-F
On to B6, for which, in the series with angiopoietin-2 (Ang2) [3], the Kd is approximately 10 nM.

B7: 9.3t (ssRNA)
RNA: AUGGGGACUAUACCGCGUAAUGCUGCCUCCCCAU
As to B7, the values for the Kd in [7] and in [8] were 0.58 nM and 4.7 nM, respectively.

B8: 9.3t-C (ssRNA)
RNA: B7 RNA
modifications: 5' cholesterol
With B8, the binding result in series [9] is given as “binds”.

B9: 10.15 (ssRNA)
RNA: GGGAGAGAGGAAGAGGGAUGGGAAGCUCCAUCCAAGCGACGACACGCUCGUCCCGAAAAGAAUCAUAACCCAGAGGUCGAU
modifications: 2'-F pyrimidines
B9 yielded an equilibrium dissociation constant (Kd) in [10] of approximately 6.33 nM.
